Positions count from the first letter of the chain named.
T1: TkoTpt1 (Thermococcus kodakarensis, UniProt Q5JFX3 1-180)
T1 sequence: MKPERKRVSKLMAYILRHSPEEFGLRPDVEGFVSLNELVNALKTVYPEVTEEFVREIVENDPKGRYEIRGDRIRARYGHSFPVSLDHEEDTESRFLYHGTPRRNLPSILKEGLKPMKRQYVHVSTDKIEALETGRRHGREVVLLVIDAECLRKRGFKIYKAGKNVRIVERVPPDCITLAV

T2: TkoTpt1 K63A (Thermococcus kodakarensis, UniProt Q5JFX3 1-180, K63A)
T2 sequence: T1 sequence with K63A


Tests used:
TkoTpt1 = target: T1, TkoTpt1; assay: X-ray crystallography
TkoTpt1 K63A = target: T2, TkoTpt1 K63A; assay: X-ray crystallography

Binder | binding result (TkoTpt1) | binding result (TkoTpt1 K63A)
AAAAAAAAAA (ssDNA, 5'-phosphate (lost to NAD+ in the Appr>P complexes, giving 5'-OH DNA)) [5'-p-DNA (oligo dA10)] | binds | 
AAAAAAAAAA (ssDNA, 5'-phospho-ADP-ribosylated, formed in situ from 5'-p-DNA and NAD+) [5'-p-ADPR-DNA (dA10 intermediate)] |  | binds
